Experiment [1] deals with human endoglin (human) (UniProt P17813). Description: cell-based or functional assay.
Experiment [2] shares this target. As to the kind of experiment: FACS, indirect immunofluorescence on HUVEC, antibody at 10 µg/ml, MTSA control subtracted.
Experiment [3] shares this target. Description: competitive binding inhibition on HUVEC by FACS; unlabelled TEC-4 against biotinylated TEC-11 as competitor, ratio 1:1.
For experiment [4] the target is unchanged. As to the kind of experiment: FACS, postconfluent HUVEC stained with 20 µg/ml TEC-11, sorted endoglin^lo fraction; mean (SD) of 2 studies.
Experiment [5] shares this target. Description: FACS, postconfluent HUVEC stained with 20 µg/ml TEC-11, sorted endoglin^hi fraction; mean (SD) of 2 studies.

Some results are limits rather than exact numbers.

As to TEC-4 (antibody), the complement fixation: lysis of HUVEC with guinea-pig complement (trypan blue) (% lysis at 100 µg/ml) in the experiment with human endoglin (human) [1] is 48. This substance returned a specific mean fluorescence intensity (MFI) in the experiment with human endoglin (human) [2] of 200. Moreover, the percent blocking with human endoglin (human) [3] worked out at 11%.
As to TEC-11 (antibody), in the experiment with human endoglin (human) [1], the complement fixation relative to TEC-4 amounted to 100 fold and the complement fixation: lysis of HUVEC with guinea-pig complement (trypan blue) (% lysis at 1 µg/ml) is greater than 50. The same substance gave a specific mean fluorescence intensity (MFI) in the experiment with human endoglin (human) [2] of 200. In the experiment with human endoglin (human) [4], this substance came in with an MFI of 61.6. Also, in the experiment with human endoglin (human) [5], the MFI was 270.
